Patent US20050260634A1

Assays:
[1] = biological target: c-Myc (UniProt P01106); test: flow cytometry, fixed and permeabilized HCT15 cells, negative control
[2] = biological target: c-Myc (UniProt P01106); test: flow cytometry, fixed and permeabilized HCT116 cells, negative control (row shifted one column to the left)
[3] = biological target: c-Myc (UniProt P01106); test: flow cytometry, fixed and permeabilized JEG3 cells, negative control

UniProt P01106, sequence (P01106 whole entry): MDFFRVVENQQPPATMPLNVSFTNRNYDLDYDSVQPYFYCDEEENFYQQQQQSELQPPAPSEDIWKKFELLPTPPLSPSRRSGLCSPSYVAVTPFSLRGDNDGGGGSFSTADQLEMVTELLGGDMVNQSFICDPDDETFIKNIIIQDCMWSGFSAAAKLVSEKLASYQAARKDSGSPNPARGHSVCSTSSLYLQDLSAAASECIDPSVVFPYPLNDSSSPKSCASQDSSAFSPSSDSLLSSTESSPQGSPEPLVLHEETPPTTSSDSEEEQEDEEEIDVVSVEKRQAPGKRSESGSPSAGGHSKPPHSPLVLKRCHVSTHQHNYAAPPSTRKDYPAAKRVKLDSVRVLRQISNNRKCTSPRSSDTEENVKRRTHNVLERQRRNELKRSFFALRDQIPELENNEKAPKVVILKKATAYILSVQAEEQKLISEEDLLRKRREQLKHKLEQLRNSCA

percentage of positive cells above the flow cytometry threshold [1]: 1.6%
percentage of positive cells above the flow cytometry threshold [2]: 1.5%
percentage of positive cells above the flow cytometry threshold [3]: 1.1%
Substance: non-immunized rabbit immunoglobulins (antibody)
